Numbered stars: 1 amine (or outer) side, 2 acyl side, 3 side chain; on linkers, the order of the positions; unused ones are H or OH. Bridge positions count the residues as written; N and C are the ends. Square brackets hold non-standard residues; d marks the D form. * marks the point of attachment. C20 diacid = O=C(O)CCCCCCCCCCCCCCCCCCC(=O)*; γGlu = O=C(O)[C@H](CCC(=O)[*:2])N[*:1]; 4Pal = N[C@@H](Cc1ccncc1)C(=O)O
T1: rat NPRA (rat, UniProt P18910 29-1057)
T1 sequence (looked up): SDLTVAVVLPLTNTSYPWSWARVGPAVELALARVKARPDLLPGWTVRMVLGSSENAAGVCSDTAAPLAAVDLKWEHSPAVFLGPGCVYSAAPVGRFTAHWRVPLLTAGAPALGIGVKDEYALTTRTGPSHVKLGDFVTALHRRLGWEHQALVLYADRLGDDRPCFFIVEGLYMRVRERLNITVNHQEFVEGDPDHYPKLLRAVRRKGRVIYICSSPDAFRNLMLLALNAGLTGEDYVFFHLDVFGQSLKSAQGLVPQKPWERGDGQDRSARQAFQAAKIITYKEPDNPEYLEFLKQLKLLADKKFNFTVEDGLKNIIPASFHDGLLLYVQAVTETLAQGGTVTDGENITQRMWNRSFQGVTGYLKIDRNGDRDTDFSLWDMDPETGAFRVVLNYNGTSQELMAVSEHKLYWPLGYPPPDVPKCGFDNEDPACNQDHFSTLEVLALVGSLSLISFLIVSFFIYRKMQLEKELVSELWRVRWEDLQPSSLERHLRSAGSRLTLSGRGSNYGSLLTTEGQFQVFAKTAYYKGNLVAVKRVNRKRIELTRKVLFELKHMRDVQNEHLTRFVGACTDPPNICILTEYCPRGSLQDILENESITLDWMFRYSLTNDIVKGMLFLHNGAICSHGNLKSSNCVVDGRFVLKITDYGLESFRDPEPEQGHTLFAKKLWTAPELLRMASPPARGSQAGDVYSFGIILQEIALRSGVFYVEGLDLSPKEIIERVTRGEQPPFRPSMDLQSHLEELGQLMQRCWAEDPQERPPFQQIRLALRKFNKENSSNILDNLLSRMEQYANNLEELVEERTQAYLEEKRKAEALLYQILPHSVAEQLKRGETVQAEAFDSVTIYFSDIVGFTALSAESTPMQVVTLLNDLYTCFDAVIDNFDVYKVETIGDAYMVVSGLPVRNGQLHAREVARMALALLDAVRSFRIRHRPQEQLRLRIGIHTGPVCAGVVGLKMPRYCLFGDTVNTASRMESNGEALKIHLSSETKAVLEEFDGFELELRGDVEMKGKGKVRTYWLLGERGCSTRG

T2: human NPRA (human, UniProt P16066 33-1061)
T2 sequence (looked up): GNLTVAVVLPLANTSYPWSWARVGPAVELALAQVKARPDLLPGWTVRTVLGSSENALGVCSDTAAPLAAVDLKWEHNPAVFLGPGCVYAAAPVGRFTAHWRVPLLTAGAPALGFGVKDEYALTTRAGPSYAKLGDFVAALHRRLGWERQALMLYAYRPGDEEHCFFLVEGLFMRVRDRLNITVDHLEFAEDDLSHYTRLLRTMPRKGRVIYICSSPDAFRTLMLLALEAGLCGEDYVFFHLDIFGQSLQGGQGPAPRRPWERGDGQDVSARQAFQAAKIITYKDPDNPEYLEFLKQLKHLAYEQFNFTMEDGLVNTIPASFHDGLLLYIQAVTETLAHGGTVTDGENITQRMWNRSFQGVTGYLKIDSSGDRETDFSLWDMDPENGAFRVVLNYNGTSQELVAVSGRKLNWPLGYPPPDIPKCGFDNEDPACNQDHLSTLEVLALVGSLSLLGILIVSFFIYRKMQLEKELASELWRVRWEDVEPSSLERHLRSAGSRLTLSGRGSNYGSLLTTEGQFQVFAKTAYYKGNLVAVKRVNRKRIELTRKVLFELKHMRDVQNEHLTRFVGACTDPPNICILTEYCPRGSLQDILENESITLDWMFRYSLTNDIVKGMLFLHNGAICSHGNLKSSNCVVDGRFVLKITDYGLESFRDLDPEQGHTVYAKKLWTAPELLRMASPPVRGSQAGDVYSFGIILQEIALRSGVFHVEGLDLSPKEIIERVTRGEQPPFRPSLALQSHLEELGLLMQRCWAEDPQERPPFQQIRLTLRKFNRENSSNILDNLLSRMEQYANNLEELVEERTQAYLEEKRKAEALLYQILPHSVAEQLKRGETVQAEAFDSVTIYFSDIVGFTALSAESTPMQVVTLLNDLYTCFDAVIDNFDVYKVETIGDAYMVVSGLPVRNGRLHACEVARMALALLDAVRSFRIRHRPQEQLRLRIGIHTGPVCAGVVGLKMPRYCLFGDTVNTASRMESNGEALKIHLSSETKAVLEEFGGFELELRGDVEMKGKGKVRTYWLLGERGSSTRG

B1: Example 11 (peptide)
peptide: XEKEKEKGSXRRSSCFGGRIDRIGAQSGLGCNSFRY
modifications: HOOC-(CH2)18-CO-(γGlu)-EKEKEKGS-4Pal-RRSS[CFGGRIDRIGAQSGLGC]NSFRY-NH2; disulfide linkage between the bracketed Cys
B2: Example 13 (peptide)
peptide: {C20 diacid}-[γGlu]EKEKEKGSLRRSSCF[4Pal]GRIDRIGAQSGLGCNSFRY-NH2
modifications: disulfide 15-31
SMILES: CC[C@H](C)[C@@H]1NC(=O)[C@H](CCCNC(=N)N)NC(=O)[C@H](CC(=O)O)NC(=O)[C@H]([C@@H](C)CC)NC(=O)[C@H](CCCNC(=N)N)NC(=O)CNC(=O)[C@H](Cc2ccncc2)NC(=O)[C@H](Cc2ccccc2)NC(=O)[C@@H](NC(=O)[C@H](CO)NC(=O)[C@H](CO)NC(=O)[C@H](CCCNC(=N)N)NC(=O)[C@H](CCCNC(=N)N)NC(=O)[C@H](CC(C)C)NC(=O)[C@H](CO)NC(=O)CNC(=O)[C@H](CCCCN)NC(=O)[C@H](CCC(=O)O)NC(=O)[C@H](CCCCN)NC(=O)[C@H](CCC(=O)O)NC(=O)[C@H](CCCCN)NC(=O)[C@H](CCC(=O)O)NC(=O)CC[C@H](NC(=O)CCCCCCCCCCCCCCCCCCC(=O)O)C(=O)O)CSSC[C@@H](C(=O)N[C@@H](CC(N)=O)C(=O)N[C@@H](CO)C(=O)N[C@@H](Cc2ccccc2)C(=O)N[C@@H](CCCNC(=N)N)C(=O)N[C@@H](Cc2ccc(O)cc2)C(N)=O)NC(=O)CNC(=O)[C@H](CC(C)C)NC(=O)CNC(=O)[C@H](CO)NC(=O)[C@H](CCC(N)=O)NC(=O)[C@H](C)NC(=O)CNC1=O
B3: Example 14 (peptide)
peptide: {C20 diacid}-[γGlu]EKEKEKGS[4Pal]RRSSCFGGRIDRIGA[4Pal]SGLGCNSFRY-NH2
modifications: disulfide 15-31
SMILES: CC[C@H](C)[C@@H]1NC(=O)[C@H](CCCNC(=N)N)NC(=O)[C@H](CC(=O)O)NC(=O)[C@H]([C@@H](C)CC)NC(=O)[C@H](CCCNC(=N)N)NC(=O)CNC(=O)CNC(=O)[C@H](Cc2ccccc2)NC(=O)[C@@H](NC(=O)[C@H](CO)NC(=O)[C@H](CO)NC(=O)[C@H](CCCNC(=N)N)NC(=O)[C@H](CCCNC(=N)N)NC(=O)[C@H](Cc2ccncc2)NC(=O)[C@H](CO)NC(=O)CNC(=O)[C@H](CCCCN)NC(=O)[C@H](CCC(=O)O)NC(=O)[C@H](CCCCN)NC(=O)[C@H](CCC(=O)O)NC(=O)[C@H](CCCCN)NC(=O)[C@H](CCC(=O)O)NC(=O)CC[C@H](NC(=O)CCCCCCCCCCCCCCCCCCC(=O)O)C(=O)O)CSSC[C@@H](C(=O)N[C@@H](CC(N)=O)C(=O)N[C@@H](CO)C(=O)N[C@@H](Cc2ccccc2)C(=O)N[C@@H](CCCNC(=N)N)C(=O)N[C@@H](Cc2ccc(O)cc2)C(N)=O)NC(=O)CNC(=O)[C@H](CC(C)C)NC(=O)CNC(=O)[C@H](CO)NC(=O)[C@H](Cc2ccncc2)NC(=O)[C@H](C)NC(=O)CNC1=O
B4: Example 9 (peptide)
peptide: {C20 diacid}-[γGlu]EKEKEKGSLRRSSCFGGRIDRIGAQSGLGCNSFR[4Pal]-NH2
modifications: disulfide 15-31
SMILES: CC[C@H](C)[C@@H]1NC(=O)[C@H](CCCNC(=N)N)NC(=O)[C@H](CC(=O)O)NC(=O)[C@H]([C@@H](C)CC)NC(=O)[C@H](CCCNC(=N)N)NC(=O)CNC(=O)CNC(=O)[C@H](Cc2ccccc2)NC(=O)[C@@H](NC(=O)[C@H](CO)NC(=O)[C@H](CO)NC(=O)[C@H](CCCNC(=N)N)NC(=O)[C@H](CCCNC(=N)N)NC(=O)[C@H](CC(C)C)NC(=O)[C@H](CO)NC(=O)CNC(=O)[C@H](CCCCN)NC(=O)[C@H](CCC(=O)O)NC(=O)[C@H](CCCCN)NC(=O)[C@H](CCC(=O)O)NC(=O)[C@H](CCCCN)NC(=O)[C@H](CCC(=O)O)NC(=O)CC[C@H](NC(=O)CCCCCCCCCCCCCCCCCCC(=O)O)C(=O)O)CSSC[C@@H](C(=O)N[C@@H](CC(N)=O)C(=O)N[C@@H](CO)C(=O)N[C@@H](Cc2ccccc2)C(=O)N[C@@H](CCCNC(=N)N)C(=O)N[C@@H](Cc2ccncc2)C(N)=O)NC(=O)CNC(=O)[C@H](CC(C)C)NC(=O)CNC(=O)[C@H](CO)NC(=O)[C@H](CCC(N)=O)NC(=O)[C@H](C)NC(=O)CNC1=O
B5: Example 12 (peptide)
peptide: {C20 diacid}-[γGlu]EKEKEKGSLRRSSCFGGRIDRIGA[4Pal]SGLGCNSFR[4Pal]-NH2
modifications: disulfide 15-31
SMILES: CC[C@H](C)[C@@H]1NC(=O)[C@H](CCCNC(=N)N)NC(=O)[C@H](CC(=O)O)NC(=O)[C@H]([C@@H](C)CC)NC(=O)[C@H](CCCNC(=N)N)NC(=O)CNC(=O)CNC(=O)[C@H](Cc2ccccc2)NC(=O)[C@@H](NC(=O)[C@H](CO)NC(=O)[C@H](CO)NC(=O)[C@H](CCCNC(=N)N)NC(=O)[C@H](CCCNC(=N)N)NC(=O)[C@H](CC(C)C)NC(=O)[C@H](CO)NC(=O)CNC(=O)[C@H](CCCCN)NC(=O)[C@H](CCC(=O)O)NC(=O)[C@H](CCCCN)NC(=O)[C@H](CCC(=O)O)NC(=O)[C@H](CCCCN)NC(=O)[C@H](CCC(=O)O)NC(=O)CC[C@H](NC(=O)CCCCCCCCCCCCCCCCCCC(=O)O)C(=O)O)CSSC[C@@H](C(=O)N[C@@H](CC(N)=O)C(=O)N[C@@H](CO)C(=O)N[C@@H](Cc2ccccc2)C(=O)N[C@@H](CCCNC(=N)N)C(=O)N[C@@H](Cc2ccncc2)C(N)=O)NC(=O)CNC(=O)[C@H](CC(C)C)NC(=O)CNC(=O)[C@H](CO)NC(=O)[C@H](Cc2ccncc2)NC(=O)[C@H](C)NC(=O)CNC1=O
B6: Example 10 (peptide)
peptide: {C20 diacid}-[γGlu]EKEKEKGSLRRSSCFGGRIDRIGA[4Pal]SGLGCNSFRY-NH2
modifications: disulfide 15-31
SMILES: CC[C@H](C)[C@@H]1NC(=O)[C@H](CCCNC(=N)N)NC(=O)[C@H](CC(=O)O)NC(=O)[C@H]([C@@H](C)CC)NC(=O)[C@H](CCCNC(=N)N)NC(=O)CNC(=O)CNC(=O)[C@H](Cc2ccccc2)NC(=O)[C@@H](NC(=O)[C@H](CO)NC(=O)[C@H](CO)NC(=O)[C@H](CCCNC(=N)N)NC(=O)[C@H](CCCNC(=N)N)NC(=O)[C@H](CC(C)C)NC(=O)[C@H](CO)NC(=O)CNC(=O)[C@H](CCCCN)NC(=O)[C@H](CCC(=O)O)NC(=O)[C@H](CCCCN)NC(=O)[C@H](CCC(=O)O)NC(=O)[C@H](CCCCN)NC(=O)[C@H](CCC(=O)O)NC(=O)CC[C@H](NC(=O)CCCCCCCCCCCCCCCCCCC(=O)O)C(=O)O)CSSC[C@@H](C(=O)N[C@@H](CC(N)=O)C(=O)N[C@@H](CO)C(=O)N[C@@H](Cc2ccccc2)C(=O)N[C@@H](CCCNC(=N)N)C(=O)N[C@@H](Cc2ccc(O)cc2)C(N)=O)NC(=O)CNC(=O)[C@H](CC(C)C)NC(=O)CNC(=O)[C@H](CO)NC(=O)[C@H](Cc2ccncc2)NC(=O)[C@H](C)NC(=O)CNC1=O

target: T1, rat NPRA; test: cell-based or functional assay

Binder	cGMP Assay (EC50, pM) w/BSA [pM]	cGMP Assay (EC50, pM) w/Casein [pM]
B1	24700	242
B2	24000	241
B3	37800	1170
B4	46700	509
B5	85500	670
B6	88400	501

target: T2, human NPRA; test: cell-based or functional assay

Binder	cGMP Assay (EC50, pM) w/BSA [pM]	cGMP Assay (EC50, pM) w/Casein [pM]
B1	24400	1020
B2	145000	1920
B3	27700	685
B4	100000	1870
B5	109000	1520
B6	64200	1310
